From patent publication US20160272683A1 (Novo Nordisk, published 2016)
Each block holds one binder with its values, some of them ahead of it. * marks the point of attachment. C18 diacid = O=C(O)CCCCCCCCCCCCCCCCC(=O)*

Target: T1, human calcitonin receptor (human, UniProt P30988 25-474)
T1 construct: whole, on cells; also called hCT-R; hCTR
T1 sequence (looked up): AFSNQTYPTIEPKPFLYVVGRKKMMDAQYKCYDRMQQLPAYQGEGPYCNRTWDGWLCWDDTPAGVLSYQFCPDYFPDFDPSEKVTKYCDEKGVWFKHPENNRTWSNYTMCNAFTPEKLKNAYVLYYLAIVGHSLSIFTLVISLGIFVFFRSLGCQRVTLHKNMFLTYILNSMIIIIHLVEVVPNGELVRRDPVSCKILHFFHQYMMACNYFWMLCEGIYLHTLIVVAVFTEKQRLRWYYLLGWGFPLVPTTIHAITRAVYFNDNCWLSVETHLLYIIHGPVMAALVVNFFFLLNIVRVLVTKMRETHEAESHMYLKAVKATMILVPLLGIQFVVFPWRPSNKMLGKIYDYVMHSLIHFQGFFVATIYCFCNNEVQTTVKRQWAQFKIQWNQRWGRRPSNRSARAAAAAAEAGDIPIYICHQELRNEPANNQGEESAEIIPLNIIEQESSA
Assay: whole-cell competition vs 125I-human calcitonin (Assay VIIa)
Procedure: The binding assay was performed using a BHK tk'ts 13 cell line was stably transfected with the human calcitonin receptor, and a CRE-responsive luciferase reporter gene.
The day before the assay the cells were Seeded into Poly-D-Lysin coated 384W Opaque White, BD BioCoat plates (10000 cells/well) and Incubated overnight at 37° C., 5% CO2, 95% humidity. […] The morning after, the plates were washed three times in HBSS (4° C.), and lyzed in Lysis buffer (0.1 M NaOH), 1% SDS. Scintillation cocktail (MicroScint40®) was added and the plates were shaken at 500 rpm for a short period. The plate was incubated at room temperature in the dark for 1 hour and Read on a TopCounter™ (Packard). The IC₅₀ was calculated using (one site binding competition analysis) GraphPad Prism5 as a measure of receptor affinity.

B1: [N-terminal(C18 diacid), 9I]mimylin (peptide)
peptide: {C18 diacid}-EASELSTAILGRLSAELHELATLPRTETGPESP-NH2
SMILES: CC[C@H](C)[C@H](NC(=O)[C@H](C)NC(=O)[C@@H](NC(=O)[C@H](CO)NC(=O)[C@H](CC(C)C)NC(=O)[C@H](CCC(=O)O)NC(=O)[C@H](CO)NC(=O)[C@H](C)NC(=O)[C@H](CCC(=O)O)NC(=O)CCCCCCCCCCCCCCCCC(=O)O)[C@@H](C)O)C(=O)N[C@@H](CC(C)C)C(=O)NCC(=O)N[C@@H](CCCNC(=N)N)C(=O)N[C@@H](CC(C)C)C(=O)N[C@@H](CO)C(=O)N[C@@H](C)C(=O)N[C@@H](CCC(=O)O)C(=O)N[C@@H](CC(C)C)C(=O)N[C@@H](Cc1c[nH]cn1)C(=O)N[C@@H](CCC(=O)O)C(=O)N[C@@H](CC(C)C)C(=O)N[C@@H](C)C(=O)N[C@H](C(=O)N[C@@H](CC(C)C)C(=O)N1CCC[C@H]1C(=O)N[C@@H](CCCNC(=N)N)C(=O)N[C@H](C(=O)N[C@@H](CCC(=O)O)C(=O)N[C@H](C(=O)NCC(=O)N1CCC[C@H]1C(=O)N[C@@H](CCC(=O)O)C(=O)N[C@@H](CO)C(=O)N1CCC[C@H]1C(N)=O)[C@@H](C)O)[C@@H](C)O)[C@@H](C)O
notes: also called Ex. #10
IC50: 0.523 nM

B2: [N-terminal(C18 diacid), 9V, 18A]mimylin (peptide)
peptide: {C18 diacid}-EASELSTAVLGRLSAELAELATLPRTETGPESP-NH2
SMILES: CC(C)C[C@H](NC(=O)[C@H](CCC(=O)O)NC(=O)[C@H](C)NC(=O)[C@H](CO)NC(=O)[C@H](CC(C)C)NC(=O)[C@H](CCCNC(=N)N)NC(=O)CNC(=O)[C@H](CC(C)C)NC(=O)[C@@H](NC(=O)[C@H](C)NC(=O)[C@@H](NC(=O)[C@H](CO)NC(=O)[C@H](CC(C)C)NC(=O)[C@H](CCC(=O)O)NC(=O)[C@H](CO)NC(=O)[C@H](C)NC(=O)[C@H](CCC(=O)O)NC(=O)CCCCCCCCCCCCCCCCC(=O)O)[C@@H](C)O)C(C)C)C(=O)N[C@@H](C)C(=O)N[C@@H](CCC(=O)O)C(=O)N[C@@H](CC(C)C)C(=O)N[C@@H](C)C(=O)N[C@H](C(=O)N[C@@H](CC(C)C)C(=O)N1CCC[C@H]1C(=O)N[C@@H](CCCNC(=N)N)C(=O)N[C@H](C(=O)N[C@@H](CCC(=O)O)C(=O)N[C@H](C(=O)NCC(=O)N1CCC[C@H]1C(=O)N[C@@H](CCC(=O)O)C(=O)N[C@@H](CO)C(=O)N1CCC[C@H]1C(N)=O)[C@@H](C)O)[C@@H](C)O)[C@@H](C)O
notes: also called Ex. #33
IC50: 0.752 nM

B3: [N-terminal(C18 diacid), 9L, 10A]mimylin (peptide)
peptide: {C18 diacid}-EASELSTALAGRLSAELHELATLPRTETGPESP-NH2
SMILES: CC(C)C[C@H](NC(=O)[C@H](C)NC(=O)[C@@H](NC(=O)[C@H](CO)NC(=O)[C@H](CC(C)C)NC(=O)[C@H](CCC(=O)O)NC(=O)[C@H](CO)NC(=O)[C@H](C)NC(=O)[C@H](CCC(=O)O)NC(=O)CCCCCCCCCCCCCCCCC(=O)O)[C@@H](C)O)C(=O)N[C@@H](C)C(=O)NCC(=O)N[C@@H](CCCNC(=N)N)C(=O)N[C@@H](CC(C)C)C(=O)N[C@@H](CO)C(=O)N[C@@H](C)C(=O)N[C@@H](CCC(=O)O)C(=O)N[C@@H](CC(C)C)C(=O)N[C@@H](Cc1c[nH]cn1)C(=O)N[C@@H](CCC(=O)O)C(=O)N[C@@H](CC(C)C)C(=O)N[C@@H](C)C(=O)N[C@H](C(=O)N[C@@H](CC(C)C)C(=O)N1CCC[C@H]1C(=O)N[C@@H](CCCNC(=N)N)C(=O)N[C@H](C(=O)N[C@@H](CCC(=O)O)C(=O)N[C@H](C(=O)NCC(=O)N1CCC[C@H]1C(=O)N[C@@H](CCC(=O)O)C(=O)N[C@@H](CO)C(=O)N1CCC[C@H]1C(N)=O)[C@@H](C)O)[C@@H](C)O)[C@@H](C)O
notes: also called Ex. #27
IC50: 0.219 nM

B5: [N-terminal(C18 diacid), 9V]mimylin (peptide)
peptide: {C18 diacid}-EASELSTAVLGRLSAELHELATLPRTETGPESP-NH2
SMILES: CC(C)C[C@H](NC(=O)[C@H](CCC(=O)O)NC(=O)[C@H](Cc1c[nH]cn1)NC(=O)[C@H](CC(C)C)NC(=O)[C@H](CCC(=O)O)NC(=O)[C@H](C)NC(=O)[C@H](CO)NC(=O)[C@H](CC(C)C)NC(=O)[C@H](CCCNC(=N)N)NC(=O)CNC(=O)[C@H](CC(C)C)NC(=O)[C@@H](NC(=O)[C@H](C)NC(=O)[C@@H](NC(=O)[C@H](CO)NC(=O)[C@H](CC(C)C)NC(=O)[C@H](CCC(=O)O)NC(=O)[C@H](CO)NC(=O)[C@H](C)NC(=O)[C@H](CCC(=O)O)NC(=O)CCCCCCCCCCCCCCCCC(=O)O)[C@@H](C)O)C(C)C)C(=O)N[C@@H](C)C(=O)N[C@H](C(=O)N[C@@H](CC(C)C)C(=O)N1CCC[C@H]1C(=O)N[C@@H](CCCNC(=N)N)C(=O)N[C@H](C(=O)N[C@@H](CCC(=O)O)C(=O)N[C@H](C(=O)NCC(=O)N1CCC[C@H]1C(=O)N[C@@H](CCC(=O)O)C(=O)N[C@@H](CO)C(=O)N1CCC[C@H]1C(N)=O)[C@@H](C)O)[C@@H](C)O)[C@@H](C)O
notes: also called Ex. #9
IC50: 0.736 nM

Further binders by falling IC50, results first:

IC50: 3.35 nM
B4: [N-terminal(C18 diacid), 9V, 28P]mimylin (peptide)
peptide: {C18 diacid}-EASELSTAVLGRLSAELHELATLPRTEPGPESP-NH2
SMILES: CC(C)C[C@H](NC(=O)[C@H](CCC(=O)O)NC(=O)[C@H](Cc1c[nH]cn1)NC(=O)[C@H](CC(C)C)NC(=O)[C@H](CCC(=O)O)NC(=O)[C@H](C)NC(=O)[C@H](CO)NC(=O)[C@H](CC(C)C)NC(=O)[C@H](CCCNC(=N)N)NC(=O)CNC(=O)[C@H](CC(C)C)NC(=O)[C@@H](NC(=O)[C@H](C)NC(=O)[C@@H](NC(=O)[C@H](CO)NC(=O)[C@H](CC(C)C)NC(=O)[C@H](CCC(=O)O)NC(=O)[C@H](CO)NC(=O)[C@H](C)NC(=O)[C@H](CCC(=O)O)NC(=O)CCCCCCCCCCCCCCCCC(=O)O)[C@@H](C)O)C(C)C)C(=O)N[C@@H](C)C(=O)N[C@H](C(=O)N[C@@H](CC(C)C)C(=O)N1CCC[C@H]1C(=O)N[C@@H](CCCNC(=N)N)C(=O)N[C@H](C(=O)N[C@@H](CCC(=O)O)C(=O)N1CCC[C@H]1C(=O)NCC(=O)N1CCC[C@H]1C(=O)N[C@@H](CCC(=O)O)C(=O)N[C@@H](CO)C(=O)N1CCC[C@H]1C(N)=O)[C@@H](C)O)[C@@H](C)O
notes: also called Ex. #32

IC50: 0.57 nM
B7: [N-terminal(C18 diacid), 9V, 10I]mimylin (peptide)
peptide: {C18 diacid}-EASELSTAVIGRLSAELHELATLPRTETGPESP-NH2
SMILES: CC[C@H](C)[C@H](NC(=O)[C@@H](NC(=O)[C@H](C)NC(=O)[C@@H](NC(=O)[C@H](CO)NC(=O)[C@H](CC(C)C)NC(=O)[C@H](CCC(=O)O)NC(=O)[C@H](CO)NC(=O)[C@H](C)NC(=O)[C@H](CCC(=O)O)NC(=O)CCCCCCCCCCCCCCCCC(=O)O)[C@@H](C)O)C(C)C)C(=O)NCC(=O)N[C@@H](CCCNC(=N)N)C(=O)N[C@@H](CC(C)C)C(=O)N[C@@H](CO)C(=O)N[C@@H](C)C(=O)N[C@@H](CCC(=O)O)C(=O)N[C@@H](CC(C)C)C(=O)N[C@@H](Cc1c[nH]cn1)C(=O)N[C@@H](CCC(=O)O)C(=O)N[C@@H](CC(C)C)C(=O)N[C@@H](C)C(=O)N[C@H](C(=O)N[C@@H](CC(C)C)C(=O)N1CCC[C@H]1C(=O)N[C@@H](CCCNC(=N)N)C(=O)N[C@H](C(=O)N[C@@H](CCC(=O)O)C(=O)N[C@H](C(=O)NCC(=O)N1CCC[C@H]1C(=O)N[C@@H](CCC(=O)O)C(=O)N[C@@H](CO)C(=O)N1CCC[C@H]1C(N)=O)[C@@H](C)O)[C@@H](C)O)[C@@H](C)O
notes: also called Ex. #26

IC50: 0.506 nM
B6: [N-terminal(C18 diacid), 9V, 25P]mimylin (peptide)
peptide: {C18 diacid}-EASELSTAVLGRLSAELHELATLPPTETGPESP-NH2
SMILES: CC(C)C[C@H](NC(=O)[C@H](CCC(=O)O)NC(=O)[C@H](Cc1c[nH]cn1)NC(=O)[C@H](CC(C)C)NC(=O)[C@H](CCC(=O)O)NC(=O)[C@H](C)NC(=O)[C@H](CO)NC(=O)[C@H](CC(C)C)NC(=O)[C@H](CCCNC(=N)N)NC(=O)CNC(=O)[C@H](CC(C)C)NC(=O)[C@@H](NC(=O)[C@H](C)NC(=O)[C@@H](NC(=O)[C@H](CO)NC(=O)[C@H](CC(C)C)NC(=O)[C@H](CCC(=O)O)NC(=O)[C@H](CO)NC(=O)[C@H](C)NC(=O)[C@H](CCC(=O)O)NC(=O)CCCCCCCCCCCCCCCCC(=O)O)[C@@H](C)O)C(C)C)C(=O)N[C@@H](C)C(=O)N[C@H](C(=O)N[C@@H](CC(C)C)C(=O)N1CCC[C@H]1C(=O)N1CCC[C@H]1C(=O)N[C@H](C(=O)N[C@@H](CCC(=O)O)C(=O)N[C@H](C(=O)NCC(=O)N1CCC[C@H]1C(=O)N[C@@H](CCC(=O)O)C(=O)N[C@@H](CO)C(=O)N1CCC[C@H]1C(N)=O)[C@@H](C)O)[C@@H](C)O)[C@@H](C)O
notes: also called Ex. #31
